We go through two molecules from patent US20230374148A1, “BINDING MOLECULES THAT MULTIMERISE CD45” (UCB BIOPHARMA SRL, priority 2020, published 2023).

Assay [1] relates to SU-DHL-5. The assay can be described thus: Apoptosis of cell lines: SU-DHL-5. The following applies: SU-DHL-5, 21 hrs. The class given is cell-based. From the text:
(§1) The following cell lines representing various leukaemia's and lymphoma's, as classified by ATCC (www.atcc.org/), were used: Jurkat—acute T-cell leukaemia; CCRF-SB—B-cell acute lymphoblastic leukaemia; MC116—B-cell undifferentiated lymphoma; Raji, Ramos—Burkitt lymphoma (rare form of B-cell non-Hodgkin lymphoma); SU-DHL-4, SU-DHL-5, SU-DHL-8, NU-DUL-1, OCI-Ly3—Diffuse large B-cell lymphoma; THP-1—acute monocytic leukaemia; and Dakiki—B cell nasopharyngeal carcinoma.
(§2) Prior to an assay being performed, 1 vial of each of the above cell lines was thawed in a 37° C. water bath and then added to 20 ml complete media (RPMI 1640+2 mM GlutaMAX+1% Pen/Strep, all previous supplied by Invitrogen, +10% Fetal Bovine Serum (FBS), Sigma Aldrich). Cells were spun (500 g, 5 min, at RT) and re-suspended in 20 ml complete media to wash and spun again. Cells were resuspended in 10 ml complete media and then counted using a ChemoMetec NucleoCounter NC-3000. 6×10^6 cells of each cell line were spun (500 g, 5 min, at RT) and re-suspended in 4.8 ml complete media. 1×10^5 cells in 80 μl were then added to each well of a Corning Costar 96-well, cell culture treated, U-shaped-bottom microplate (cat no. 07-200-95). The plate was rested in a 37° C., 5% CO2 incubator for 2 hrs
(§3) Stocks of 4133-6294 BYbe and NegCtrl BYbe at 2500 nM in complete media were prepared. In a Greiner 96-well non-binding microplate, both reagents were serially diluted in complete media 1 in 5, seven times to produce to form an 8-point dose curve. […] (final well concentrations 500-0.0064 nM) was added to the cells. Each concentration was produced in triplicate. Camptothecin (cat no. C9911-100MG, Sigma Aldrich) and Staurosporine (cat no. 56942-200UL, Sigma Aldrich) were added as positive controls of apoptosis. Both were diluted in complete media and added to the well to produce a final concentration of 5 μM. Additional positive controls included anti-thymocyte globulin (ATG, indicated by FDA for use in conditioning regimens), Rituximab (anti-CD20, indicated by FDA for Non-Hodgkin Lymphoma and Chronic Lymphocytic Leukaemia) and Campath (anti-CD52, indicated by FDA for B-cell Chronic Lymphocytic Leukaemia). Anti-thymocyte globulin, Rituximab and Campath were added to the wells to produce final concentrations of 200 μg/ml, 500 nM and 200 μg/ml, respectively. […]
(§4) Following the incubation, the plates were spun at 500 g, 5 min, RT, the buffer was aspirated with a BioTek ELx405 microplate washer, and the cells were re-suspended in FACS buffer (PBS+1% bovine serum albumin (BSA)+0.1% NaN3+2 mM EDTA, Sigma Aldrich) to wash and then re-spun and buffer was aspirated to leave the cells in 20 μl residual media. […] Cells were analysed using the Bio-Rad ZE5 Cell Analyzer. […]

Assay [2] deals with Dakiki. The assay can be described thus: Apoptosis of cell lines: Dakiki. The following applies: 21 hrs. The class given is cell-based.
Description: as §1, §2, §3, §4

Assay [3] has as its system OCI-Ly3. In words: Apoptosis of cell lines: OCI-Ly3. The class given is cell-based. The following applies: OCI-Ly3, 21 hrs.
Description: as §1, §2, §3, §4

Assay [4] relates to MC116. In words: Apoptosis of cell lines: MC116. The class given is cell-based. The following applies: MC116, 21 hrs.
Description: as §1, §2, §3, §4

In assay [5] the target is T1, CD45 ECD (Homo sapiens, UniProt P08575).
T1 construct: extracellular domain of CD45 (UniProtKB—P08575, residue positions 225-573); TEV cleavage site (C); 10-His tag (C); made in house; host or cells: HEK293
T1 sequence (P08575 225-573): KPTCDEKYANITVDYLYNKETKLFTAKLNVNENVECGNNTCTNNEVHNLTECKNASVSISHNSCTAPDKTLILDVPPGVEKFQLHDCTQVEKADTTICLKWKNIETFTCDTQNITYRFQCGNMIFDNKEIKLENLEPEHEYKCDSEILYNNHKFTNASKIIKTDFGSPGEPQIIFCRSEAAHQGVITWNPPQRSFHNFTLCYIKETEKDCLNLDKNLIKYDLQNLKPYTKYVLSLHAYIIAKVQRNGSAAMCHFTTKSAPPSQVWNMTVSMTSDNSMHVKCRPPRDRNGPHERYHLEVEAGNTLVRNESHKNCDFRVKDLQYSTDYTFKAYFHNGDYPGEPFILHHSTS
In words: Mass photometry of mixture of CD45 ECD and BYbe. The class given is binding. The following applies: for Theoretical mass (kDa): based on observed masses of 62 and 76 kDa. The protocol:
Data were acquired on a RefeynOneMP mass photometer (Refeyn Ltd, Oxford, UK) using AcquireMP (Refeyn Ltd, v2.2.1) software and images were processed and analysed using DiscoverMP (v2.3.dev12) software.
Measurements were performed using clean glass coverslips (High Precision coverslips, No. 1.5, 24×50 mm, Marienfeld) mounted with silicon gaskets (CultureWell™ Reusable Gaskets, Grace biolabs) cut in to 2×2 well sections. Protein stocks were diluted directly in Dulbecco's Phosphate-Buffered Saline (DPBS, ThermoFisher). Typical working concentrations of protein complexes were 1-100 nM, depending on the dissociation characteristics of the protein complexes.
The instrument lens was cleaned with Iso-propyl alcohol (IPA), allowed to dry and a drop of Olympus Low Auto Fluorescence Immersion Oil (NC0297589, ThermoFisher) placed on the lens prior to positioning the microscope coverslip with sample in the light stage. To find focus, 15 μl of fresh DPBS was pipetted into a silicone well, the focal position was identified and secured in place with an autofocus system based on total internal reflection for the entire measurement. For each acquisition, 5 μl of diluted protein was introduced into the well, mixed thoroughly (before autofocus stabilization), and movies of 90 s duration recorded. Each sample was measured once, with a new well and buffer used for each measurement. The mixture of CD45 ECD and 4133-6294 BYbe was not pre-incubated and therefore complexing occurred when the 2 proteins were added into the well.

“And” between values parts separate entries of the source, which are not always exact repeats. Identical values can stand only once. Marks after values point to notes of the source that are not given here.

On to “Campath: anti-CD52, clinical grade, indicated by FDA for B-cell Chronic Lymphocytic Leukaemia; positive control [reference compound]”, for which the “Campath mean (%) cell reduction” value in assay [1] (200 μg/ml) worked out at 26.74%; in assay [2] (200 μg/ml), 8.83%; in assay [3] (200 μg/ml) it was 6.72%; in assay [4] (200 μg/ml) it was 70.24%.

B1: 4133-6294 BYbe: anti-CD45 BYbe (Fab-scFv): 4133 Fab HC-G4S linker-6294 scFv heavy chain paired with 4133 light chain (antibody)
heavy: QEQLVESGGGLVQPEGSLTLTCTASGFSFSGNYYMCWVRQAPGKGLEWIGCLYTGSSGSTYYASWAKGRFTISKTSSTTVTLQMTSLTAADTATYFCARDLGYEIDGYGGLWGQGTLVTVSSGQPKAPSVFPLAPCCGDTPSSTVTLGCLVKGYLPEPVTVTWNSGTLTNGVRTFPSVRQSSGLYSLSSVVSVTSSSQPVTCNVAHPATNTKVDKTVAPSTCSKPGGGGSGGGGSEVQLVESGAELARPGASVKMSCKASGYTFTSYTMHWVKQRPGQCLEWIGYINPSSGYTEYNQKFKDKTTLTADKSSSTAYLQLSSLTSEDSAVYYCARVGDGFYPSWLAYWGQGTLVTVSSGGGGSGGGGSGGGGSGGGGSDIQMTQSPKFLLVSAGDRVTITCKASQSVRNDVAWYQQKPGQSPKLLIFYASKRYTGVPDRFTGSGYGTDFTFTISTVQAEDLAVYFCQQDYSSPTTFGCGTKLEIK
light: AQVLTQTPSPVSAVVGGTVSISCQASQSVYNNNNLSWYQQKPGQPPKLLIYDASKLASGVPSRFKGSGSGTQFTLTISGVQCDDAATYYCLGGYYSSGWYFAFGGGTKVVVKRTPVAPTVLIFPPAADQVATGTVTIVCVANKYFPDVTVTWEVDGTTQTTGIENSKTPQNSADCTYNLSSTLTLTSTQYNSHKEYTCKVTQGTTSVVQSFNRGDC
B1: the “Observed mass (kDa)” value in assay [5] (1× (CD45 + BYbe) complex in mixture of CD45 ECD and 4133-6294 BYbe) came to 136 kDa; in assay [5] (2× (CD45 + BYbe) complex in mixture of CD45 ECD and 4133-6294 BYbe), 274 kDa; in assay [5] (3× (CD45 + BYbe) complex in mixture of CD45 ECD and 4133-6294 BYbe), 415 kDa; in assay [5] (4× (CD45 + BYbe) complex in mixture of CD45 ECD and 4133-6294 BYbe), 555 kDa. Besides, the “Theoretical mass (kDa)” value in assay [5] (1× (CD45 + BYbe)) is 138 kDa; in assay [5] (2× (CD45 + BYbe)), 276 kDa; in assay [5] (3× (CD45 + BYbe)), 414 kDa; in assay [5] (4× (CD45 + BYbe)), 552 kDa. Besides, the “Bottom (%) level of % cell reduction” value in assay [1] was 43.93%; in assay [2] it was 10.88%; in assay [3], 10.54%; in assay [4] (calculated bottom of non-sigmoidal curve), −65.46* %. For the same molecule, the “Top (%) level of % cell reduction” value in assay [1] is 91.01%; in assay [2] it was 76.37%; in assay [3] it was 39.84% and 39.94%; in assay [4], 99.45%.
